From the RNAGym collection of RNA variant scans (doi:10.7554/elife.80360) come the findings set out here.

B1: HDV Ribozyme (parent)
chain: GGCCGGCAUGGUCCCAGCCUCCUCGCUGGCGCCGGCUGGGCAACAUUCCGAGGGGACCGUCCCCUCGGUAAUGGCGAAUGGGACCCA

Variants of B1 are the subject of the data set. In words: self-cleavage, relative activity (ratio to wild type); higher = more cleavage; co-transcriptional.
With C48U C58A, the self-cleavage is 1.06. Regarding C48U C58G, the self-cleavage was 1.06.

On to C49A C57A, for which the self-cleavage came out at 0.875. With C49G C84G, the self-cleavage came to 0.297. As for C49G C84A, the figure is 0.652; as for C49G C63G, 0.475. As to C49G C63U, the self-cleavage is 0.815. As for C49U A78C, the figure is 0.188; as for C49U C75A, 0.196; as for G50A C75G, 0.0852. For C49A C64A the value was 0.284.

As for C49A G74U, the self-cleavage was 0.415.

As for C49G A56C, the self-cleavage amounted to 0.785.

Consider G50A A87G, for which the self-cleavage came out at 1.01. As for C48U C86A, the figure is 0.985; as for C48U C86G, 1.14. As for C48U C86U, the figure is 1.09; as for G50A A51G, 1.03; as for C49G G73U, 0.322. As for C49U G67C, the figure is 1.1; as for C48U G50U, 0.742. Take C48U G53C: the self-cleavage turned out to be 0.997. Take C49U A83C: the self-cleavage was found to be 0.615. For C49U A83G the value was 0.883; for G50A C61G, 0.91; for C49A U65G, 0.539. As for C49A U65C, the figure is 0.923; as for C48U G82C, 0.196; as for G50A C63U, 1.13. As for G50A G55U, the figure is 1.11. Consider C48U C63G, for which the self-cleavage came to 0.542. For C48U C63U the value was 0.969. For C49U A56U the value was 0.973; for C48U U79A, 0.706; for C48U U79G, 0.665. As for C49G G76U, the figure is 1.17; as for C49U C66G, 0.892. Take C48G C75G: the self-cleavage worked out at 0.0639. As for C48G U72C, the figure is 0.449; as for C49U U69A, 0.95; as for C49U U69G, 1.16. As for G50A G52U, the figure is 0.688; as for C49U G53U, 1.02; as for C48G C85U, 0.831. C48G G81C: the self-cleavage is 0.185. As to C48G G81A, the self-cleavage is 0.489. For C48U G74A the value was 0.517; for C49G C86G, 0.587; for C49U G55A, 0.866. With C49G A77C, the self-cleavage was 0.119. For C49G A87U the value was 0.913. For C49G A87G the value was 0.969. For G50A C84U the value was 0.754. C48G G67A: the self-cleavage turned out to be 0.91. For C49G A70G the value was 0.733. For the variant C48G C84A, the self-cleavage was determined as 0.932. Consider C49A G80C, for which the self-cleavage turned out to be 0.0665. As to C49A G80U, the self-cleavage was determined as 0.188.

C49A G67U: the self-cleavage worked out at 0.945. As for C49A G52C, the figure is 0.573; as for C48U G67A, 0.818.

C49G G54U: the self-cleavage is 0.519. As for C48U G80A, the figure is 0.297; as for C48U G80C, 0.243; as for C48U U60C, 1.27. For G50A C86U the value was 1.06. For G50A C86A the value was 0.931; for C49G C66G, 0.665; for C49U C57A, 1.07. Regarding C49G U65C, the self-cleavage came out at 0.675. On to C48U A56C, for which the self-cleavage amounted to 0.657. For C48U A78C the value was 0.115.

Take C49G A78G: the self-cleavage is 0.266.

C48U C64A: the self-cleavage is 0.554.

Regarding C49U G52U, the self-cleavage came out at 0.687. Take C49A C62A: the self-cleavage turned out to be 0.81. For C49A C62U the value was 0.933; for C49G A71U, 1.04; for C49G A71G, 0.72.

Consider C48U U72A, for which the self-cleavage was 0.855. For C48U U72C the value was 0.554. For C49U G81A the value was 0.378; for C48U G52U, 0.577; for C49A G50C, 1.15. For C49G G74A the value was 0.132; for C49U U65C, 0.902; for G50A A78G, 0.923. On to G50A A78C, for which the self-cleavage turned out to be 0.138. As for C49U A51G, the figure is 1.01; as for C49U C62A, 0.652. With C49A U69C, the self-cleavage is 1.13. As for C49A A83G, the figure is 0.546; as for C49U C86U, 0.882; as for C49U C86G, 1.16.

For C48U G55A, the self-cleavage came to 0.75.

On to C48G G59C, for which the self-cleavage was 0.831.

C48G U60A: the self-cleavage stood at 0.864.

Take C49G G55C: the self-cleavage was 1.03. For C48G G53A the value was 1.06; for C49A G55C, 0.927. As for C48U A71G, the self-cleavage stood at 1.03.

Turning to G50A A77G, the self-cleavage turned out to be 0.743.

On to C48G G68C, for which the self-cleavage worked out at 1.14. For C49A G82U the value was 0.437; for C49G G52C, 0.287.

Consider C49G G52A, for which the self-cleavage worked out at 0.543. As for C48G G55U, the figure is 0.972; as for C48G G55C, 0.851; as for C48U A70C, 0.649.

As to C49A C63G, the self-cleavage was determined as 0.256.

Regarding C49A C63U, the self-cleavage stood at 0.817. As for G50A G54U, the figure is 0.852. For C48G C62G the value was 0.269; for C48G C62A, 0.35; for C48G C62U, 0.746. As for C49G C75U, the figure is 0.201.

For the variant C49U A77C, the self-cleavage worked out at 0.469. For C48G C61G the value was 1.06. C49A A78U: the self-cleavage stood at 0.248. As for C49G U79C, the figure is 0.631.

As for G50A A56G, the self-cleavage is 1.15.

Take G50A C66G: the self-cleavage is 1.05. Regarding G50A C66U, the self-cleavage stood at 0.989.

C48U C57A: the self-cleavage was determined as 0.972. For C48U G68C the value was 0.959. For C48U G68U the value was 0.893.

Take C49A A70C: the self-cleavage is 0.831. For C48U C61U the value was 0.856. For C49G C64U the value was 0.973.

As to C49G C64A, the self-cleavage amounted to 0.375. For G50A A71C the value was 0.633; for G50A C57U, 1. On to G50A C57A, for which the self-cleavage was 0.972.

In the case of C49A G76C, the self-cleavage amounted to 1.22. As for C49G G50U, the figure is 0.47; as for C49A A71U, 0.849; as for C48G U79A, 0.911.

Turning to C48G G74A, the self-cleavage was found to be 0.305. Turning to C48G G74C, the self-cleavage came out at 0.0755.

Turning to C49U C85A, the self-cleavage was determined as 1.17.

Turning to C49A G53U, the self-cleavage turned out to be 0.608. For C49G A83U the value was 0.35; for C48G G80C, 0.262; for C49A G59A, 0.938.

Regarding C49A C66A, the self-cleavage is 0.786.

For C49A G54A, the self-cleavage worked out at 0.589. Consider C49A G54U, for which the self-cleavage stood at 0.734. As for C49U C64G, the figure is 0.684; as for C49A U60C, 0.78. For C49U C58A the value was 1.02; for C49U C58G, 1.01. For C49A G81A the value was 0.242; for C49A G81C, 0.189; for C49U C84A, 0.786. On to C48G C86A, for which the self-cleavage was found to be 1.09. As for C48U C75A, the figure is 0.199.

With C48U G59A, the self-cleavage amounted to 1.06. As for C48U C85A, the figure is 1.03; as for C48G G54A, 0.372; as for C49G C57U, 0.945. For C48G C64G, the self-cleavage is 0.266. As for C48G C64U, the figure is 0.85; as for C48U A87U, 0.942. For C49A G73U the value was 0.272. As for C48U U69C, the figure is 1.07; as for C48U U69A, 1.04. Consider C48G C63G, for which the self-cleavage was found to be 0.306.
